Square brackets hold non-standard residues; d marks the D form. Ends that are not written are not given here.

The target in this test is T1, mouse ADAMTS7 (Mus musculus, UniProt Q68SA9, E373Q).
T1 construct: Full-length mouse Adamts7 1-1857 (Uniprot Q68SA9, WT or E373Q catalytic mutant); expressed in transfected cells; host or cells: Human Coronary Artery Smooth Muscle Cells (HCA-SMC, Lonza), adenovirus 50 MOI
T1 sequence (Q68SA9 221-1657 E373Q): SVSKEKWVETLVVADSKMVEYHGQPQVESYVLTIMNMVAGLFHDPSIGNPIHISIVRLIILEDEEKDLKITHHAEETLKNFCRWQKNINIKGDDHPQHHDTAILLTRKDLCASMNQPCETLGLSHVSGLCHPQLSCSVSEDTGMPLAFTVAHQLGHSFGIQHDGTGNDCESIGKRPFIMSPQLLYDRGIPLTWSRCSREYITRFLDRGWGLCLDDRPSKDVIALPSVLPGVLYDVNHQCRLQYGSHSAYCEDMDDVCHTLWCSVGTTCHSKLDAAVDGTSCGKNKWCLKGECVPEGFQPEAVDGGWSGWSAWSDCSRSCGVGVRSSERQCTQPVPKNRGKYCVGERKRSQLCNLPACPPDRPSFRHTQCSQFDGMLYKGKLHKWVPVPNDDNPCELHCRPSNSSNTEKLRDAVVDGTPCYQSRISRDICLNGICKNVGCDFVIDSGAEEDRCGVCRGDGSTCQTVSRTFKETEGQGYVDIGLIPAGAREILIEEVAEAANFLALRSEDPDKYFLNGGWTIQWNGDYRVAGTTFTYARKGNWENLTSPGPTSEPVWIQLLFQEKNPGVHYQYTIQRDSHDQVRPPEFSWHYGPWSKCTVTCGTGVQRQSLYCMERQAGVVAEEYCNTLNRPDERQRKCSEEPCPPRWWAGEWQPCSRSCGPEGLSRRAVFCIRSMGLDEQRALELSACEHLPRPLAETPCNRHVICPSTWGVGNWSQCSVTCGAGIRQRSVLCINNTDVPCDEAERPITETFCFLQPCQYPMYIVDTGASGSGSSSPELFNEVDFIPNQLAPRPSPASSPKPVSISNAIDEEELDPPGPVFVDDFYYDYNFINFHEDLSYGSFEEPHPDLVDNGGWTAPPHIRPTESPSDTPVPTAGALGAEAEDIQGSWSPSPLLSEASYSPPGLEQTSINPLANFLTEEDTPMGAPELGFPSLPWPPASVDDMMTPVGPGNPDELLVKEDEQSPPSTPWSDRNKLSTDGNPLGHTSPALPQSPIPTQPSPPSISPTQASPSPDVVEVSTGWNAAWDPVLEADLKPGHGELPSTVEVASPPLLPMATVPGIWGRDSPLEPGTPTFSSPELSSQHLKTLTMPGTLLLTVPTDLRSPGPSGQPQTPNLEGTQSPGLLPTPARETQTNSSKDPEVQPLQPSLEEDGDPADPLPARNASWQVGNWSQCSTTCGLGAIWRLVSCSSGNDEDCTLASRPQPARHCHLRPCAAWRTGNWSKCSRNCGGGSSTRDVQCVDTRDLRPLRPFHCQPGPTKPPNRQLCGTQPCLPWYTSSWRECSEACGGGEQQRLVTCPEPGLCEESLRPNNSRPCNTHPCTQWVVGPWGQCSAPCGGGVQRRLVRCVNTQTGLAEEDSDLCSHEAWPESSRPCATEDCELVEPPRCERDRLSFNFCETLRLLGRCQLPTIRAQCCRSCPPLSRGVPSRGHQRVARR
As to the kind of experiment: TMT10 TAILS N-terminomics, HUVEC experiment (process replicates, trypsin/AspN digest). The settings on record: HUVEC TAILS HC; log fold change of N-terminal peptide, Ad-mADAMTS7 EQ over Luc. The class given is cell-based, human. In short, it runs like this: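 Full-length mouse ADAMTS7 (WT or E373Q mutant, C-terminal 3xFLAG) or luciferase was transduced via adenovirus, 50 MOI, into HCA-SMC (SMC1, SMC2) or HUVEC. SMC1: pooled media, technical triplicates 400 ug; SMC2: process triplicates 300 ug; HUVEC: process triplicates 200 ug, bFGF2 10 ng/ml.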
Turning to “ECM1_108 (QEAVPLQK; listed as Homo sapiens)”, the logFC.mEQ.over.Luc was 0.09. As to “EFEMP1_125_ (VAGPEMQTGR; listed as Homo sapiens)”, the logFC.mEQ.over.Luc is reported as −0.11. In turn, “ERAP2_718 (ISENLKR; listed as Homo sapiens)” gave a logFC.mEQ.over.Luc of 0.64. For the substance “EWSR1_87 (YSQPVQGYGTGAY; listed as Homo sapiens)”, the logFC.mEQ.over.Luc was −0.05.

Turning to “FN1_34 ([code q]QMVQPQSPVAVSQSKPGCY; not fully specified (residue 3); listed as Homo sapiens)”, the logFC.mEQ.over.Luc is on record as −0.06. Regarding “FN1_35 ([code q]MVQPQSPVAVSQSKPGCY; not fully specified (residue 2); listed as Homo sapiens)”, the logFC.mEQ.over.Luc is on record as −0.27. With “FN1_293 (VYQPQPHPQPPPYGHCVT; listed as Homo sapiens)” the figure was −0.29; with “FN1_607 (SSSGPVEVFIT; listed as Homo sapiens)”, −0.40; with “FN1_1144 (TPGVEYVYTIQVLR; listed as Homo sapiens)”, −0.19.

For the substance “FN1_1780 (LQGLRPGSEYTVSVVALH; listed as Homo sapiens)”, the logFC.mEQ.over.Luc was −0.47. For “FN1_1805 (LIGTQSTAIPAPT; listed as Homo sapiens)”, the logFC.mEQ.over.Luc is on record as 0.05. “FN1_2113 (FVTHPGY; listed as Homo sapiens)”: the logFC.mEQ.over.Luc is recorded as −0.62. For “FSTL1_290 (LQKHQETA; listed as Homo sapiens)”, the logFC.mEQ.over.Luc is −0.24.

With “LOX_125 (FQAGYSTSR; listed as Homo sapiens)”, the logFC.mEQ.over.Luc is reported as 0.24.
